Source: patent US20020164690A1

Key:
[1] = target: CNTF receptor on EW-1 cells (CNTFRα, gp130 and LIFRβ) (UniProt P26992); assay: Scatchard analysis on EW-1 cells, two-site fit; site not assigned in words
CNTFRα on PC12D cells = CNTFRα on PC12D cells (UniProt Q08406); assay: Scatchard analysis of 125I-CNTF saturation binding on PC12D cells, two-site fit; low affinity site, said to correspond to CNTF with CNTFRα
[2] = target: CNTFRα:β1 (CNTFRα and gp130) on PC12D cells (UniProt Q08406); assay: Scatchard analysis of 125I-CNTF saturation binding on PC12D cells, two-site fit; high affinity site, interpreted as the intermediate of CNTF, CNTFRα and gp130
[3] = target: recombinant human IL-1 (human); assay: cell-based or functional assay
human IL-13 (human) = human IL-13 (human) (UniProt P35225); assay: cell-based or functional assay
human IL-4 (human) = human IL-4 (human) (UniProt P05112); assay: cell-based or functional assay
Chain of human IL-4 (human) (P05112 25-153 limits assumed): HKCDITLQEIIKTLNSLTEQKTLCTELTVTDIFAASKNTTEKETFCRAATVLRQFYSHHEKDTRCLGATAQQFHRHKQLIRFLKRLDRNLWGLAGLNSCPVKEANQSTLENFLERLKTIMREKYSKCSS

Chain of human IL-13 (human) (P35225 35-146 limits assumed): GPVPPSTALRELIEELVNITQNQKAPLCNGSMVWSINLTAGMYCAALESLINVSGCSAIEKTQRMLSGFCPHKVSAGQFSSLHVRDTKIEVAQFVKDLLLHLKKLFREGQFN
Chain of IL-1-RI.Fc (P14778 18-336): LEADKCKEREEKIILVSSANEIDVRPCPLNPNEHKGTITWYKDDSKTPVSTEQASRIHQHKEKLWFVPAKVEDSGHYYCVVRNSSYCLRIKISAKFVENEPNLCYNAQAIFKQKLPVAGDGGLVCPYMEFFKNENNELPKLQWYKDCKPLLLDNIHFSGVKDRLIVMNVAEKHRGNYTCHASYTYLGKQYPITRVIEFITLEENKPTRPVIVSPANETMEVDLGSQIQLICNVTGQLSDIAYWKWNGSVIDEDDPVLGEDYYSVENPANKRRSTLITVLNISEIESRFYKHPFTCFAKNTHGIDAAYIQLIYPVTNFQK
Chain of CNTFRα:β1 (CNTFRα and gp130) on PC12D cells (Q08406 23-342 limits assumed, chain 1 of 2): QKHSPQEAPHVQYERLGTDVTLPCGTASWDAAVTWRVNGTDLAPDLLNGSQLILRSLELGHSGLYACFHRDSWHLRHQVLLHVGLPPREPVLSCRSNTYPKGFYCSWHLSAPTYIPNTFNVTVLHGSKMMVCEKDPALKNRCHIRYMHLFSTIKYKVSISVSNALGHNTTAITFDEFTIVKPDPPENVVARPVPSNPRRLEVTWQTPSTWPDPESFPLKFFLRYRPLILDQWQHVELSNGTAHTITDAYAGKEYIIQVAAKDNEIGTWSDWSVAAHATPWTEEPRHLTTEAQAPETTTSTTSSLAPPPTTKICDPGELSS
Chain of CNTFRα:β1 (CNTFRα and gp130) on PC12D cells (P40190 23-918 limits assumed, chain 2 of 2, further chain): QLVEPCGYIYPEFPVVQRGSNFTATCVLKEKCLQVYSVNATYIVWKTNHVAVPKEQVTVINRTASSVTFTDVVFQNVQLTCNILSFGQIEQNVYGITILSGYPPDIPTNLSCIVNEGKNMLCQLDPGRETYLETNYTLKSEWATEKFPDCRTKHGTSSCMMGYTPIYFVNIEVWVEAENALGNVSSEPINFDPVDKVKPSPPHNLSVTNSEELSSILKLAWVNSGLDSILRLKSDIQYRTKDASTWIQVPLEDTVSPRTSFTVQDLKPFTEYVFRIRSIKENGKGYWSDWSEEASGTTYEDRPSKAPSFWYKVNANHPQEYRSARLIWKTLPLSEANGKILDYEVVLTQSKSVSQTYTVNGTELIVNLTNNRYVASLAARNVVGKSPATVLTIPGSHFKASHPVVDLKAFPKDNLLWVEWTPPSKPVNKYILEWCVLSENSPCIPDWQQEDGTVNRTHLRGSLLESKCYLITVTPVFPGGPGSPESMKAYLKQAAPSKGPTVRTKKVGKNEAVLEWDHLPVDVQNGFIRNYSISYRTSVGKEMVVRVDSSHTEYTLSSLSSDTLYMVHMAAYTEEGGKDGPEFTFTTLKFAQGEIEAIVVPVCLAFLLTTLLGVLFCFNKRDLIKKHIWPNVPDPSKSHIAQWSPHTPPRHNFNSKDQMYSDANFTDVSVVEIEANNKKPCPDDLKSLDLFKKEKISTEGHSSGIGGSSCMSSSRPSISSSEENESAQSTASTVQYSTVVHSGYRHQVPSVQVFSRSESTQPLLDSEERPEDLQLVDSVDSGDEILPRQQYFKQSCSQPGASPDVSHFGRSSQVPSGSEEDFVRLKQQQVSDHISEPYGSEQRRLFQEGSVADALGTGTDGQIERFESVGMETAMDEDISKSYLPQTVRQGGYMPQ
Chain of CNTFRα on PC12D cells (Q08406 23-342 limits assumed): as the sequence (Q08406 23-342 limits assumed, chain 1 of 2) above
Chain of CNTF receptor on EW-1 cells (CNTFRα, gp130 and LIFRβ) (P26992 23-342 limits assumed, chain 1 of 3): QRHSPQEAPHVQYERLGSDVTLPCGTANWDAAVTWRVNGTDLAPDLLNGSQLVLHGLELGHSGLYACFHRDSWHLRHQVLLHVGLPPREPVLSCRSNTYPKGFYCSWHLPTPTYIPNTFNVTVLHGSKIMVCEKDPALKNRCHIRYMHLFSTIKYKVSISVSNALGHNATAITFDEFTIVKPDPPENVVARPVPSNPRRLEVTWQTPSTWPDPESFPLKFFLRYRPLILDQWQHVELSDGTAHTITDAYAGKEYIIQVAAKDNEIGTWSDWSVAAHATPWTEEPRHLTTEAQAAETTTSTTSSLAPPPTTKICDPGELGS
Chain of CNTF receptor on EW-1 cells (CNTFRα, gp130 and LIFRβ) (P40189 23-918 limits assumed, chain 2 of 3, further chain): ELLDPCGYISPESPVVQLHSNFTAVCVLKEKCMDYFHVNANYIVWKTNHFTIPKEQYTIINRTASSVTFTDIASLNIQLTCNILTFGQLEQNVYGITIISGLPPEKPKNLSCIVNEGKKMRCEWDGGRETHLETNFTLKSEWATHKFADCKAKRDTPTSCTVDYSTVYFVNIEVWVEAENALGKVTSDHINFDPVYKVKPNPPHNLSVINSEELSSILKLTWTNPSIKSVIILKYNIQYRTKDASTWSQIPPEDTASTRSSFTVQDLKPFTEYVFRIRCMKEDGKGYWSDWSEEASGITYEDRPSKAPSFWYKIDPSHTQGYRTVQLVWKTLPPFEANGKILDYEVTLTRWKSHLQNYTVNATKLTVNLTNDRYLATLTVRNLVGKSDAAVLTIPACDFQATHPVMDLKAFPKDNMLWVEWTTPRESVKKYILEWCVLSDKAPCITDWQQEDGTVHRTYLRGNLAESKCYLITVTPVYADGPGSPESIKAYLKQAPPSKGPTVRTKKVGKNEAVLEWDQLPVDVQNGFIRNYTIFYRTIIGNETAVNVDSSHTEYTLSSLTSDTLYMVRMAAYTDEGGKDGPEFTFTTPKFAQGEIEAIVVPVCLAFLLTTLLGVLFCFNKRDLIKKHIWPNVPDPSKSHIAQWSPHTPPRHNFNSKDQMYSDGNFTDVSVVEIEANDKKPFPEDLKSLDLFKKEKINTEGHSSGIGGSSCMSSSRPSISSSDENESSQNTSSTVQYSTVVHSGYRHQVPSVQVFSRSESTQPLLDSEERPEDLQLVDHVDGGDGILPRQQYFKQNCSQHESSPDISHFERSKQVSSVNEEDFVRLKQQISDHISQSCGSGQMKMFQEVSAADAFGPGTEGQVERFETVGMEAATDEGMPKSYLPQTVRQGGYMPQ
Chain of CNTF receptor on EW-1 cells (CNTFRα, gp130 and LIFRβ) (P42702 45-1097 limits assumed, chain 3 of 3, further chain): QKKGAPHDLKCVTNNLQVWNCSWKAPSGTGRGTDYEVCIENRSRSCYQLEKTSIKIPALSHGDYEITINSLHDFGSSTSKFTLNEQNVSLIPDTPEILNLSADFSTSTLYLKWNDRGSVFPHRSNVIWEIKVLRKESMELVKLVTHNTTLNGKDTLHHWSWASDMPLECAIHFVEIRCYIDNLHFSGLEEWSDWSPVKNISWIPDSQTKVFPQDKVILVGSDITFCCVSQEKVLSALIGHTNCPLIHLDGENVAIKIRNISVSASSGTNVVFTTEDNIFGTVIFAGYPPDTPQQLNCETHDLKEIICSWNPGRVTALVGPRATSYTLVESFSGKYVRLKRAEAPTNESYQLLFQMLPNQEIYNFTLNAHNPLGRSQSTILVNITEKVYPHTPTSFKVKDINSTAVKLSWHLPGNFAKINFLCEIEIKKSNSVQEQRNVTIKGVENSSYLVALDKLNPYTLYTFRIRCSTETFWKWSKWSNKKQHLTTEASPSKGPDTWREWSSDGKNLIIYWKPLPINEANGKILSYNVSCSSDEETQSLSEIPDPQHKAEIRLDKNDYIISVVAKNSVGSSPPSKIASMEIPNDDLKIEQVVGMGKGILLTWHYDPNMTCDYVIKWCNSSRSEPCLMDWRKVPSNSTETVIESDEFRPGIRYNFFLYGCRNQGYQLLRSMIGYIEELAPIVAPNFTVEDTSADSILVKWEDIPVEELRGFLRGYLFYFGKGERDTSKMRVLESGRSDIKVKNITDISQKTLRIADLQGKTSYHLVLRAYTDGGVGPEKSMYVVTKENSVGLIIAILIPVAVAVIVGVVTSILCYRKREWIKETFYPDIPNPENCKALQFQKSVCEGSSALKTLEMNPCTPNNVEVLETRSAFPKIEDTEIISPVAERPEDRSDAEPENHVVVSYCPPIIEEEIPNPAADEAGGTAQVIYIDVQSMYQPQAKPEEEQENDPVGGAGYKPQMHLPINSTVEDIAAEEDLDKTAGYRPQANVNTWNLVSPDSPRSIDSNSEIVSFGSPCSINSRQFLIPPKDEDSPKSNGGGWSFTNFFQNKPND

Substance 125I-CNTF (ligand) has a Kd [1] of 1 nM, a Kd (CNTFRα on PC12D cells) of 3.4 nM and a Kd [2] of 0.009 nM.

With “IL-1-RI.Fc (from UniProt P14778 18-336) (Fc fusion)” the IL-1-dependent production of IL-6 by MRC5 cells: IL-1 concentration blocked [3] was 10 to 20 pM.

“IL-4/IL-13 Trap 1132 (from UniProt P24394 26-232; P78552 27-343) (Fc fusion)” gave a TF1 bioassay: activity against IL-4/IL-13 Trap 943 (fold (against Trap 943)) (human IL-13 (human)) of 2 to 3.

For “IL-4Rα.IL-13Rα1.Fc (from UniProt P24394 26-232; P78552 22-343) (Fc fusion)”, the TF1 bioassay: IL-13 concentration at which growth is inhibited by 50% (10 nM trap) (human IL-13 (human)) was 4 to 5 nM and the TF1 bioassay: IL-13 concentration up to which 10 nM trap blocks growth (human IL-13 (human)) was 2 nM.

“IL-13Rα1.IL-4Rα.Fc (from UniProt P78552 22-343; P24394 26-232) (Fc fusion)” gave a TF1 bioassay: IL-13 concentration at which growth is inhibited by 50% (10 nM trap) (human IL-13 (human)) of 4 to 5 nM, a TF1 bioassay: IL-13 concentration up to which 10 nM trap blocks growth (human IL-13 (human)) of 2 nM and a TF1 bioassay: IL-4 concentration at which growth is inhibited by 50% (10 nM trap) (human IL-4 (human)) of 3 to 4 nM. For the same substance, the TF1 bioassay: IL-4 concentration up to which 10 nM trap blocks growth (human IL-4 (human)) was 1 nM.
